Results reported in US20140087426.

Legend:
Assay in all cases: cell_activity
[1] = tested on: spexin TALEN right (synthetic (Xanthomonas TALE)); details: 33/36, as pair
[2] = tested on: tnikb TALEN right (synthetic (Xanthomonas TALE)); details: 18/39, as pair
[3] = tested on: kiss2 TALEN right (synthetic (Xanthomonas TALE)); details: 69/69, as pair
[4] = tested on: miR-214 TALEN right (synthetic (Xanthomonas TALE)); details: 25/47, as pair
[5] = tested on: miR-451 TALEN right (synthetic (Xanthomonas TALE)); details: 2/47, as pair, 22-bp spacer
[6] = tested on: kiss1 TALEN right (synthetic (Xanthomonas TALE)); details: 32/40, as pair
[7] = tested on: gria3a TALEN right (synthetic (Xanthomonas TALE)); details: 49/55, as pair, zebrafish embryos
[8] = tested on: kiss2r TALEN right (synthetic (Xanthomonas TALE)); details: 3/45, as pair, 21-bp spacer
[9] = tested on: kiss1r TALEN right (synthetic (Xanthomonas TALE)); details: 22/43, as pair
[10] = tested on: miR-1-1 TALEN right (synthetic (Xanthomonas TALE)); details: 64/66, as pair
[11] = tested on: miR-1-2 TALEN right (synthetic (Xanthomonas TALE)); details: 34/41, as pair
[12] = tested on: gnrh3 TALEN right (synthetic (Xanthomonas TALE)); details: 6/33, as pair, 21-bp spacer
[13] = tested on: kiss2r TALEN left (synthetic (Xanthomonas TALE)); details: 3/45, as pair, 21-bp spacer
[14] = tested on: kiss1 TALEN left (synthetic (Xanthomonas TALE)); details: 32/40, as pair
[15] = tested on: miR-1-1 TALEN left (synthetic (Xanthomonas TALE)); details: 64/66, as pair
[16] = tested on: miR-1-2 TALEN left (synthetic (Xanthomonas TALE)); details: 34/41, as pair
[17] = tested on: miR-451 TALEN left (synthetic (Xanthomonas TALE)); details: 2/47, as pair, 22-bp spacer
[18] = tested on: gria3a TALEN left T8G (synthetic (Xanthomonas TALE)); details: mean of 3
[19] = tested on: gria3a TALEN left CLRT (synthetic (Xanthomonas TALE)); details: mean of 3
[20] = tested on: gria3a TALEN left T15A (synthetic (Xanthomonas TALE)); details: mean of 3
[21] = tested on: gria3a TALEN left A7T (synthetic (Xanthomonas TALE)); details: mean of 3
[22] = tested on: gria3a TALEN left -T8 (synthetic (Xanthomonas TALE)); details: 0/64 in 3
[23] = tested on: gria3a TALEN left -A7 (synthetic (Xanthomonas TALE)); details: mean of 3, nearly abolished
[24] = tested on: gria3a TALEN left G2A (synthetic (Xanthomonas TALE)); details: mean of 3
[25] = tested on: gria3a TALEN left C1G (synthetic (Xanthomonas TALE)); details: mean of 3
[26] = tested on: gria3a TALEN left -C1 (synthetic (Xanthomonas TALE)); details: mean of 3
[27] = tested on: gria3a TALEN left C1A (synthetic (Xanthomonas TALE)); details: mean of 3
[28] = tested on: gria3a TALEN left T8A (synthetic (Xanthomonas TALE)); details: 0/32 in 3
[29] = tested on: gria3a TALEN left T8C (synthetic (Xanthomonas TALE)); details: mean of 3
[30] = tested on: gria3a TALEN left T15G (synthetic (Xanthomonas TALE)); details: mean of 3
[31] = tested on: gria3a TALEN left -T15 (synthetic (Xanthomonas TALE)); details: mean of 3
[32] = tested on: gria3a TALEN left T15C (synthetic (Xanthomonas TALE)); details: mean of 3
[33] = tested on: gria3a TALEN left (synthetic (Xanthomonas TALE)); details: mean of 3; with right TALEN, zebrafish embryos; Table 4: 49/55
[34] = tested on: gria3a TALEN left CLRG (synthetic (Xanthomonas TALE)); details: mean of 3
[35] = tested on: gria3a TALEN left A7C (synthetic (Xanthomonas TALE)); details: mean of 3
[36] = tested on: gria3a TALEN left CLRA (synthetic (Xanthomonas TALE)); details: mean of 3
[37] = tested on: gria3a TALEN left C1T (synthetic (Xanthomonas TALE)); details: mean of 3
[38] = tested on: gria3a TALEN left A7G (synthetic (Xanthomonas TALE)); details: mean of 3
[39] = tested on: gria3a TALEN left -G2 (synthetic (Xanthomonas TALE)); details: mean of 3, nearly abolished
[40] = tested on: gria3a TALEN left G2T (synthetic (Xanthomonas TALE)); details: mean of 3
[41] = tested on: gria3a TALEN left G2C (synthetic (Xanthomonas TALE)); details: mean of 3
[42] = tested on: kiss2 TALEN left (synthetic (Xanthomonas TALE)); details: 69/69, as pair
[43] = tested on: miR-214 TALEN left (synthetic (Xanthomonas TALE)); details: 25/47, as pair
[44] = tested on: tnikb TALEN left (synthetic (Xanthomonas TALE)); details: 18/39, as pair
[45] = tested on: gnrh3 TALEN left (synthetic (Xanthomonas TALE)); details: 6/33, as pair, 21-bp spacer
[46] = tested on: kiss1r TALEN left (synthetic (Xanthomonas TALE)); details: 22/43, as pair
[47] = tested on: spexin TALEN left (synthetic (Xanthomonas TALE)); details: 33/36, as pair

## AATGTCATGCAATGTTA (double strand) [spexin right site]
[1]
  activity (% mutant alleles): 91.7

## ATTTTTGAGCTGGTGGA (double strand) [tnikb right site]
[2]
  activity (% mutant alleles): 46.2

## CAGCTATGAGAGCAATA (double strand) [kiss2 right site]
[3]
  activity (% mutant alleles): 100

## CAGGCAGACAGATGGCA (double strand) [miR-214 right site]
[4]
  activity (% mutant alleles): 53.2

## CTGAGTTTAGTAATGGA (double strand) [miR-451 right site]
[5]
  activity (% mutant alleles): 4.3

## CTTAGAAGGTAAGTTCA (double strand) [kiss1 right site]
[6]
  activity (% mutant alleles): 80

## GAGTTTCTGCTCTTTA (double strand) [gria3a right site]
[7]
  activity (% mutant alleles): 89.1

## GATGAAGACGGTTACAAA (double strand) [kiss2r right site]
[8]
  activity (% mutant alleles): 6.7

## GTAATAATAGAACCTCA (double strand) [kiss1r right site]
[9]
  activity (% mutant alleles): 51.2

## GTATGTATCCCAGGTGA (double strand) [miR-1-1 right site]
[10]
  activity (% mutant alleles): 97

## GTATGTATTCTTGGTCA (double strand) [miR-1-2 right site]
[11]
  activity (% mutant alleles): 82.9

## GTCCAGTTGTTGCTGTTA (double strand) [gnrh3 right site]
[12]
  activity (% mutant alleles): 18.2

## TAACCTAATAGTCATCTA (double strand) [kiss2r left site]
[13]
  activity (% mutant alleles): 6.7

## TACACACAAACCCCTCT (double strand) [kiss1 left site]
[14]
  activity (% mutant alleles): 80

## TATGAACAAGAGCAGC (double strand) [miR-1-1 left site]
[15]
  activity (% mutant alleles): 97

## TATGAACATATAAAAGC (double strand) [miR-1-2 left site]
[16]
  activity (% mutant alleles): 82.9

## TCGCTGTGACAGAGAGA (double strand) [miR-451 left site]
[17]
  activity (% mutant alleles): 4.3

## TCGTCCAATAGCTTCTC (double strand) [gria3a left site]
[18]
  activity (% mutant alleles): 14.6
[19]
  activity (% mutant alleles): 63.1
[20]
  activity (% mutant alleles): 20.8
[21]
  activity (% mutant alleles): 71.9
[22]
  activity (% mutant alleles): 0
[23]
  activity (% mutant alleles): 0.5
[24]
  activity (% mutant alleles): 17.9
[25]
  activity (% mutant alleles): 79.2
[26]
  activity (% mutant alleles): 30.7
[27]
  activity (% mutant alleles): 33.3
[28]
  activity (% mutant alleles): 0
[29]
  activity (% mutant alleles): 21.9
[30]
  activity (% mutant alleles): 65.6
[31]
  activity (% mutant alleles): 71.9
[32]
  activity (% mutant alleles): 3.1
[33]
  activity (% mutant alleles): 84.2
[34]
  activity (% mutant alleles): 2.2
[35]
  activity (% mutant alleles): 40.1
[36]
  activity (% mutant alleles): 76
[37]
  activity (% mutant alleles): 2.1
[38]
  activity (% mutant alleles): 82.3
[39]
  activity (% mutant alleles): 1.6
[40]
  activity (% mutant alleles): 52.6
[41]
  activity (% mutant alleles): 12.1

## TGATTCTCTTCATGTCTG (double strand) [kiss2 left site]
[42]
  activity (% mutant alleles): 100

## TGCAGAACTTCCTGCAC (double strand) [miR-214 left site]
[43]
  activity (% mutant alleles): 53.2

## TGTTATTTTCTCCCCT (double strand) [tnikb left site]
[44]
  activity (% mutant alleles): 46.2

## TGTTTTAGTTTTAGCATG (double strand) [gnrh3 left site]
[45]
  activity (% mutant alleles): 18.2

## TTCATGTGCAAATTTGT (double strand) [kiss1r left site]
[46]
  activity (% mutant alleles): 51.2

## TTTGTGTCCCATTCCT (double strand) [spexin left site]
[47]
  activity (% mutant alleles): 91.7
